{"source": "patent US20060252692A1", "about": "“Inhibitors for use in hemostasis” (ZymoGenetics, Inc., priority 2002, published 2006)", "molecules": {"B1": {"name": "zsig37: adipocyte complement related protein homolog, polypeptide of SEQ ID NO:2, inhibits collagen-mediated platelet activation and the complement pathway (protein, listed as Homo sapiens)", "chain": "MGSRGQGLLLAYCLLLAFASGLVLSRVPHVQGEQQEWEGTEELPSPPDHAERAEEQHEKYRPSQDQGLPASRCLRCCDPGTSMYPATAVPQINITILKGEKGDRGDRGLQGKYGKTGSAGARGHTGPKGQKGSMGAPGERCKSHYAAFSVGRKKPMHSNHYYQTVIFDTEFVNLYDHFNMFTGKFYCYVPGLYFFSLNVHTWNQKETYLHIMKNEEEVVILFAQVGDRSIMQSQSLMLELREQDQVWVRLYKGERENAIFSEELDTYITFSGYLVKHATEP"}}, "key": {"template bleeding time": {"system": "template bleeding time", "set-up": "species or system Macaca fascicularis", "details": "cynomolgus monkey, in vivo", "from_the_text": "In order to evaluate one aspect of the safety of zsig37 and its effect on template bleeding time, a pre-clinical model in Macaca fascicularis was used. Time to cessation of bleeding from standardized incisions on the animal's forearm, a procedure previously described by Wu, et al., Blood, 2002, 99:3623-3628, was employed to assess the effect of zsig37 on bleeding.\nMethods. Five female and twelve male, Macaca fascicularis weighing 2.3 to 4.6 kg were used as test subjects on this project. The animals were immobilized with ketamine hydrochloride (Phoenix Scientific) administered intramuscularly at approximately 10 mg/kg. Each animal was examined, and the animal determined to be acceptable for the study. The right forearm, abdomen, ventral neck and inguinal area were shaved free of hair. The animal was transported to the surgical suite (University of Washington Regional Primate Research Center), positioned inside a heated air circulation system and placed onto isoflurane (Abbott Laboratories) inhalation anesthesia delivered through positive pressure ventilation via an endotracheal tube. […] The time to cessation of bleeding was determined and recorded for each animal. Bleeding times were determined for each animal prior to any treatment, after low molecular weight heparin (Lovenox™, Rhone Polenc, Inc.) treatment and after zsig37 treatment."}, "[1]": {"system": "norepinepherin contracted aortic rings", "test": "Vasodilatation of norepinepherin contracted aortic rings", "set-up": "species or system Sprague Dawley rats", "details": "323, 162, and 81 ng/ml", "experimental": "The effect of zsig37 on vasodilatation of aortic rings was measured according to the procedures of (Dainty et al., J. Pharmacol. 100:767 (1990), and Rhee et al., Neurotox. 16:179 (1995)). Briefly, aortic rings 4 mm in length were taken from 4 month old Sprague Dawley rats and placed in modified Krebs solution (118.5 mM NaCl, 4.6 mM KCl, 1.2 mM MgSO4.7H2O, 1.2 mM KH2PO4, 2.5 mM CaCl2.2H2O, 24.8 mM NaHCO3 and 10 mM glucose). The rings were then attached to an isometric force transducer (Radnoti Inc.; Monrovia, Calif.) and the data recorded with a Ponemah physiology platform (Gould Instrument systems, Inc.; Valley View, Ohio) and placed in a 10 ml tissue bath oxygenated (95% O2, 5% CO2) modified Krebs solution. The tissues were adjusted to one gram resting tension and allowed to stabilize for one hour before testing.\nThe rings were tested by 5 μl additions of […] norepinepherin (Sigma Chemical Co.; St. Louis, Mo.) to a final concentration of about 1×10^−9 M and Carbachol, a muscarinic acetylcholine agonist (Sigma Chemical Co.) at 2×10^−7 M final, to test the integrity of the rings. After each test, the rings were washed three times with fresh buffer, five minutes between washes and allowed to rest one hour. […] Zsig37 was then added to one, two, or three of the four baths, without flushing, and tension on the rings was recorded and compared to the control rings. […]"}, "collagen type VI": {"molecular_target": "T1, collagen type VI (Homo sapiens, UniProt P12109+P12110+P12111)", "T1 construct": "purchased Chemicon International; Temecula, Calif", "T1 sequence (P12109 20-1028)": "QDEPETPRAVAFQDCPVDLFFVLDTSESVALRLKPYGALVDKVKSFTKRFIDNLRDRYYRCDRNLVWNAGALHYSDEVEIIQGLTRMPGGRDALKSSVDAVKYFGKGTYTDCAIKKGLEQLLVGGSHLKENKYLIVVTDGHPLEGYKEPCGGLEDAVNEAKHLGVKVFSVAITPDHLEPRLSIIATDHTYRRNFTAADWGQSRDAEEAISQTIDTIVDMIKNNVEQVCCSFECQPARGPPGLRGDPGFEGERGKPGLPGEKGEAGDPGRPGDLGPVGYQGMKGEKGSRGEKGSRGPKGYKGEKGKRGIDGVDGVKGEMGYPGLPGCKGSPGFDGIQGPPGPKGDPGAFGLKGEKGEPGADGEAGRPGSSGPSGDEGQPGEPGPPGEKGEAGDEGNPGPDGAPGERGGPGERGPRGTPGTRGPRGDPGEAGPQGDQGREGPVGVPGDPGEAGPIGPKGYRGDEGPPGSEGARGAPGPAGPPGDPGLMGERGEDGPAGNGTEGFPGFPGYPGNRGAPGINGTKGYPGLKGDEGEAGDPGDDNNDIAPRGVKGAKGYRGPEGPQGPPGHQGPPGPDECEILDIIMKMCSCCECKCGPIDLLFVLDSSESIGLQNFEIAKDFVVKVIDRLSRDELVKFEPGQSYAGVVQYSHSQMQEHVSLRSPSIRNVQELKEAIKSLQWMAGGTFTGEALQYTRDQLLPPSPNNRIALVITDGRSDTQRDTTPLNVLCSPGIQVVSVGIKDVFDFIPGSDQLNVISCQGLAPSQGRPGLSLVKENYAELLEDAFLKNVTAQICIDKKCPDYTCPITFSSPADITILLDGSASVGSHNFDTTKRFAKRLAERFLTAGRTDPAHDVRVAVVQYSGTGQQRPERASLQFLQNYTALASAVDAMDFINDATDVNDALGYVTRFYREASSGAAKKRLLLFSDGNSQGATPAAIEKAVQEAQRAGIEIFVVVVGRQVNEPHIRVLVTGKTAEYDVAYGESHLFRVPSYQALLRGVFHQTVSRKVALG", "T1 sequence (P12110 21-1019)": "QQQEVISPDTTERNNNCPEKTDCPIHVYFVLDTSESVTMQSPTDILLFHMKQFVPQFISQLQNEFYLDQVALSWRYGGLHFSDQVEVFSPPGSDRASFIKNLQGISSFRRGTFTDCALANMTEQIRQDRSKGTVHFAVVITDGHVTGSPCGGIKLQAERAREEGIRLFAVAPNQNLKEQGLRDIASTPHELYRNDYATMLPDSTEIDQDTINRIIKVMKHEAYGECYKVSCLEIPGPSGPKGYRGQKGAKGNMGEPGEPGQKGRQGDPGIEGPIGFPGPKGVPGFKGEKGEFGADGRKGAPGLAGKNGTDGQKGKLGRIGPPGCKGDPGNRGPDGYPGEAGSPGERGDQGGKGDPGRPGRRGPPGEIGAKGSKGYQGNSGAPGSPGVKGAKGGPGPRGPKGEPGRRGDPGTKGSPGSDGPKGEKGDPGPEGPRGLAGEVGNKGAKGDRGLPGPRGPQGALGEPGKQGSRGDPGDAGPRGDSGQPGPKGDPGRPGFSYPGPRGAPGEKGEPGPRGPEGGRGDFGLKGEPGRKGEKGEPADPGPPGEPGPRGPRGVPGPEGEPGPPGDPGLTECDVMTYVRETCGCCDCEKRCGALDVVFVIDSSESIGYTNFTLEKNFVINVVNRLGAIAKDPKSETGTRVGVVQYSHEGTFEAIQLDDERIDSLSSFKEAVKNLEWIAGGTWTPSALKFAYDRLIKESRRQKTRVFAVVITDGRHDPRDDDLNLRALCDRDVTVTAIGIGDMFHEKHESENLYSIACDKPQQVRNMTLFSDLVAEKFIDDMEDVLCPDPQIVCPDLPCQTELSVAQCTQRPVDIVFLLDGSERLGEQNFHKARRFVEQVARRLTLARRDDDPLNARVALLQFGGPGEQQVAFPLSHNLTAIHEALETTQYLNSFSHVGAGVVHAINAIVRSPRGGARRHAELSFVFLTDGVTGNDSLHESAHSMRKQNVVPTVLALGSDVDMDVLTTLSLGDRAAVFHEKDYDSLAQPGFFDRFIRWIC", "T1 sequence (P12111 26-3177)": "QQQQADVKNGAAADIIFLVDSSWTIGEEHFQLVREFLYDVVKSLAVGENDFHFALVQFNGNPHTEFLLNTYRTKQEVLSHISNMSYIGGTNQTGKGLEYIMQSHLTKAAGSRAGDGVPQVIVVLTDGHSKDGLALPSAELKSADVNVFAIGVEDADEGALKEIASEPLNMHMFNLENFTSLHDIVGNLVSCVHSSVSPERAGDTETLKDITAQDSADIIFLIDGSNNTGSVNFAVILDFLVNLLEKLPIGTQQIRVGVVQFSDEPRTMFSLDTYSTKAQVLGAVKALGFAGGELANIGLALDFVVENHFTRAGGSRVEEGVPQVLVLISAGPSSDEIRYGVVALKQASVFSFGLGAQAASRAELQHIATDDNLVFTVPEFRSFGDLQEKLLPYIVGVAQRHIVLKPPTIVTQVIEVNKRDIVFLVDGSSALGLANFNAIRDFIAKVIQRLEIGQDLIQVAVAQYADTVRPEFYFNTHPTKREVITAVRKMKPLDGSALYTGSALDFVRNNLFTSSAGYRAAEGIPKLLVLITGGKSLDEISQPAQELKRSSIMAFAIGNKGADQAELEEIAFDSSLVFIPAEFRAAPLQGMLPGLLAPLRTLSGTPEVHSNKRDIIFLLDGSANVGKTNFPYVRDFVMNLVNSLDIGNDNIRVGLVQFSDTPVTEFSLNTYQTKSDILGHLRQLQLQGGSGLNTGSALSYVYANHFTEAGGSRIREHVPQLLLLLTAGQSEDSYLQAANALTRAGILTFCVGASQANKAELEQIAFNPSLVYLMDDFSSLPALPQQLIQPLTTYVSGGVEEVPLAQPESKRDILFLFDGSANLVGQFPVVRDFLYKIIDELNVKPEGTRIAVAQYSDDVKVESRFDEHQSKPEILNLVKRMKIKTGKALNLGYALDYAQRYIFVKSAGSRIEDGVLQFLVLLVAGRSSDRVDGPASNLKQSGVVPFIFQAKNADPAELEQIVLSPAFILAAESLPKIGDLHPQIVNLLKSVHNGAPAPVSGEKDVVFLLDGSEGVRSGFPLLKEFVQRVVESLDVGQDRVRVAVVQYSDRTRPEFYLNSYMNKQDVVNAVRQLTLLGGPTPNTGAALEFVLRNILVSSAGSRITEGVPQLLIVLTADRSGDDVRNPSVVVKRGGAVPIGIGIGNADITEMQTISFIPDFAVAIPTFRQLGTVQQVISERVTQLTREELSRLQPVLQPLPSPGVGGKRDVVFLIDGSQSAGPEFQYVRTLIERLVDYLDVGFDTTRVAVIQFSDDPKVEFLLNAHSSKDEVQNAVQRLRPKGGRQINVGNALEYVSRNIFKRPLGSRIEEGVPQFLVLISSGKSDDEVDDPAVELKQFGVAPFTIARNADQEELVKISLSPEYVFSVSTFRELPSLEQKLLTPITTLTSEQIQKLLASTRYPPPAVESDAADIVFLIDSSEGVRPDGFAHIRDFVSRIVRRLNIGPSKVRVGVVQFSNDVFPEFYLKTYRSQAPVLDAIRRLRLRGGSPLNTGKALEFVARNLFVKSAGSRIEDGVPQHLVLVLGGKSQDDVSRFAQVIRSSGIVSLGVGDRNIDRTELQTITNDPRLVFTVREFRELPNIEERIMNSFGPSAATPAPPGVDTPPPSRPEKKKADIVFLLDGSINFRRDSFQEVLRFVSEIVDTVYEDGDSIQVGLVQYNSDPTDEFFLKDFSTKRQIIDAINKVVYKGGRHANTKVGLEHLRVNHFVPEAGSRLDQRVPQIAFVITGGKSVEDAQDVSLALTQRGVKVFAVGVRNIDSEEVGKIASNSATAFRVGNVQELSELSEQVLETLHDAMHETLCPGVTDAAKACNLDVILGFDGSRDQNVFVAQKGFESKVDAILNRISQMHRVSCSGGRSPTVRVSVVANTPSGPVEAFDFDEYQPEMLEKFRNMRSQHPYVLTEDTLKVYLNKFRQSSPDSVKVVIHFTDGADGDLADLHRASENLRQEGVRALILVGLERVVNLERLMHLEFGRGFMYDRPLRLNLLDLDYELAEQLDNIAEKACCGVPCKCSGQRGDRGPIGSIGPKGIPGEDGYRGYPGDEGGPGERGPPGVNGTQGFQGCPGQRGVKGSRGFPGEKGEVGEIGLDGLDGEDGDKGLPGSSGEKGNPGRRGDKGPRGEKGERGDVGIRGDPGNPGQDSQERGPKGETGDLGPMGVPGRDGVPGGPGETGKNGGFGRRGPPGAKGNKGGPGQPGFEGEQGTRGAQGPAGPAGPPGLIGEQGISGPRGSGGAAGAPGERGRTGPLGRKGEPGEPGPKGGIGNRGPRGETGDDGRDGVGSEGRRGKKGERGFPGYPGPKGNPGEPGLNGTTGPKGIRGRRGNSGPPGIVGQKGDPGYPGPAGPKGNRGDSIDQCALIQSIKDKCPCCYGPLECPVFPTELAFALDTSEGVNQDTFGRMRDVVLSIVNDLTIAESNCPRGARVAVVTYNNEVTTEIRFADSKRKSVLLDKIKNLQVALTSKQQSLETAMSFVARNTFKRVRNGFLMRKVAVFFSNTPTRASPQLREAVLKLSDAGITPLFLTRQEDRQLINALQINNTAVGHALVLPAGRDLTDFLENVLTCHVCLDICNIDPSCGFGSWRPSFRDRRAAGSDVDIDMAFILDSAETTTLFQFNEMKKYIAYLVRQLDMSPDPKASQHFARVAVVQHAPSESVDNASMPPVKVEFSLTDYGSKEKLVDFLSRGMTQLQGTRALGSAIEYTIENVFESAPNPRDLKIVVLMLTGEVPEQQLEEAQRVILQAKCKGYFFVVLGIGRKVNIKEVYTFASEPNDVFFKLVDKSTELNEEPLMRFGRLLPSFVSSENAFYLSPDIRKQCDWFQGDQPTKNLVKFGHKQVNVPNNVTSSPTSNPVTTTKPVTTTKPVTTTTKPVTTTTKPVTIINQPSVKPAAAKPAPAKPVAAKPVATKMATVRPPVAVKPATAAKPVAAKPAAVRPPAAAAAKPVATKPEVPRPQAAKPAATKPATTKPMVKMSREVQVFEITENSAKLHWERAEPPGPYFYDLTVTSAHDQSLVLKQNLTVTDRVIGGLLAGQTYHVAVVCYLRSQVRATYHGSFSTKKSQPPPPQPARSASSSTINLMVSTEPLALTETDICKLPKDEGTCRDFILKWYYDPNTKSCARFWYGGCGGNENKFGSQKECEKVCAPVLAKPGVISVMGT", "test": "Quantitative ELISA binding to collagen type VI", "details": "Zsig37-FITC 0.4 to 4 μg/ml, 10 μg collagen type VI", "experimental": "An ELISA (Enzyme-linked Immunosorbant Assay) was used to measure binding of zsig37 to complement C1q, and to the following matrix proteins: Bovine Collagen Type I (Becton Dickinson; Lincoln Park, N.J.), laminin, vitronectin, fibronectin, human collagen Types II, III, IV, V, VI (Chemicon International; Temecula, Calif.). BSA V (Sigma Chemical Co.) was used as a negative control. Just prior to use, the proteins were diluted in 2× PBS (Phosphate Buffered Saline, Sigma Chemical Co.) to 100 μg/ml and adjusted to pH 7.2 with 0.1 N NaOH. Each protein sample was plated in quadruplicate (100 μl/well) into a 96 well plate. The plate was allowed to dry overnight in a laminar flow hood and washed three times with 400 μl of 5 mg/ml BSA in 1× PBS and blotted dry. Zsig37 was FITC labeled according to manufacturer's instruction (Pierce; Rockford, Ill.). Into each well was added 100 μl of 1.8 μg/ml zsig37-FITC in 5% BSA, PBS. The plates were incubated for 1.5 hours at room temperature then washed 3 time with 5% BSA, PBS. To each well was then added 100 μl of 1:400 mouse anti-FITC/Biotin (Sigma Chemical Co.). […]\nThe ELISA assay for binding, described above, was modified to quantitatively evaluate binding. […] The luminescence from the SUPERSIGNAL reagent was read on a Wallac 1420 plate reader (Wallac; Gaithersburg Md.) and the intensity used as a quantitative measure of the zsig37-FITC bound to the ELISA plate."}}, "data": [{"molecule": "B1", "values": [{"measurement": "template bleeding time vs control (1.0 mg/kg BSA)", "setting": "template bleeding time", "result": "not statistically different"}, {"measurement": "dose response of vasodilatation", "setting": "[1]", "result": "dose response could not be determined"}, {"measurement": "rings vasodilated", "setting": "[1]; two of seven controls dilated, Fisher exact P 0.045", "result": "10 of the 12"}, {"measurement": "binding curve to collagen type VI", "setting": "collagen type VI", "result": "fits a typical hyperbolic binding curve"}]}]}
